Test results taken from PMC3327287.
Where two headings read alike, the source gives them in different places.

Columns and labels:
[1] = target: F-actin (actin purified from chicken breast muscle) (chicken) (UniProt P68139); experiment: co-sedimentation
[2] = target: F-actin (actin purified from chicken breast muscle) (chicken) (UniProt P68139); experiment: co-sedimentation; remark: listed apart in the source

N-ethylmaleimide (NEM) modified skeletal muscle myosin subfragment 1 (S1) (domain or fragment)
percent of NEM-S1 left in the supernatant (not bound) [1]: 20%
percent of NEM-S1 left in the supernatant (not bound) [2]: 20%
